Assay results from PMC12647621, “A de novo missense variant in MIDEAS results in increased deacetylase activity of the MiDAC HDAC complex causing a neurodevelopmental syndrome” (Nature Communications, 2025).
Residue numbers refer to the chain shown, from its start. Names and notes keep the numbering of the source. Values belong to the binder of their own block, whether it stands above or below them.

Biological target: HDAC1 (full-length) (UniProt Q13547 1-482)
Assay: cell-based or functional assay

Chain of HDAC1 (full-length) (Q13547 whole entry): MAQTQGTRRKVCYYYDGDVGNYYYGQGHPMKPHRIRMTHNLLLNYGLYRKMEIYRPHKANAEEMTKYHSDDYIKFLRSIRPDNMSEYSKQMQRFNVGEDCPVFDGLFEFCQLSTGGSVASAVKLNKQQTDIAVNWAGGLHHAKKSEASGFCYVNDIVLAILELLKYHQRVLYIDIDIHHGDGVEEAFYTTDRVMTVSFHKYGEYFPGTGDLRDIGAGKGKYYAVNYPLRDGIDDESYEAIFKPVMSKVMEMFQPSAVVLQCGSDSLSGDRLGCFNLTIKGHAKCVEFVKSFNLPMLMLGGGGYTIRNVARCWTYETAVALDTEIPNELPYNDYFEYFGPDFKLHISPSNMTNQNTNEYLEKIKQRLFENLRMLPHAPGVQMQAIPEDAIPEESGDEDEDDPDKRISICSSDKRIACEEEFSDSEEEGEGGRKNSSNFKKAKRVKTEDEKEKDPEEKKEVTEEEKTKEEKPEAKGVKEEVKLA

- initial rate of deacetylation of H3K9ac peptide (100 µM) by the MiDAC complex (50 nM HDAC1), NMR assay: 6.3 nM/s
B1: MIDEAS (628-887) (domain or fragment, human, UniProt Q6PJG2 628-887, looked up)
chain: TPYQSHLRSPVRLADHPSERSFELPPYTPPPILSPVREGSGLYFNAIISTSTIPAPPPITPKSAHRTLLRTNSAEVTPPVLSVMGEATPVSIEPRINVGSRFQAEIPLMRDRALAAADPHKADLVWQPWEDLESSREKQRQVEDLLTAACSSIFPGAGTNQELALHCLHESRGDILETLNKLLLKKPLRPHNHPLATYHYTGSDQWKMAERKLFNKGIAIYKKDFFLVQKLIQTKTVAQCVEFYYTYKKQVKIGRNGTLT

- initial rate of deacetylation of H3K9ac peptide (100 µM) by the MiDAC complex (50 nM HDAC1), NMR assay: 16.6 nM/s
B2: MIDEAS 628-887 Y654S T655A (SAP) (domain or fragment, human, UniProt Q6PJG2 628-887, looked up)
chain: B1 chain with Y27S, T28A

- initial rate of deacetylation of H3K9ac peptide (100 µM) by the MiDAC complex (50 nM HDAC1), NMR assay: 27.3 nM/s
B3: MIDEAS 628-887 Y654S T655D (SDP) (domain or fragment, human, UniProt Q6PJG2 628-887, looked up)
chain: B1 chain with Y27S, T28D

- initial rate of deacetylation of H3K9ac peptide (100 µM) by the MiDAC complex (50 nM HDAC1), NMR assay: 20.4 nM/s
B4: MIDEAS 628-887 Y654S (STP) (domain or fragment, human, UniProt Q6PJG2 628-887, looked up)
chain: B1 chain with Y27S
modifications: phosphorylation either on S654 or T655 detected on more than 41% of the peptides containing STP

- initial rate of deacetylation of H3K9ac peptide (100 µM) by the MiDAC complex (50 nM HDAC1), NMR assay: 29.7 nM/s
B5: MIDEAS 717-887 (WT) (domain or fragment, human, UniProt Q6PJG2 717-887, looked up)
chain: VSIEPRINVGSRFQAEIPLMRDRALAAADPHKADLVWQPWEDLESSREKQRQVEDLLTAACSSIFPGAGTNQELALHCLHESRGDILETLNKLLLKKPLRPHNHPLATYHYTGSDQWKMAERKLFNKGIAIYKKDFFLVQKLIQTKTVAQCVEFYYTYKKQVKIGRNGTLT
